The values that follow come from patent US20240116984A1 (published 2024).

To fix the notation:
B1: Compound 4, Ac-aVal-Gln-aIle-Ile-Asn-Lys-NH2 (peptide)
peptide: Ac-[aVal]Q[aIle′]INK-NH2
SMILES: CC[C@H](C)[C@H](NC(=O)[C@H]([C@@H](C)CC)N(N)C(=O)[C@H](CCC(N)=O)NC(=O)[C@H](C(C)C)N(N)C(C)=O)C(=O)N[C@@H](CC(N)=O)C(=O)N[C@@H](CCCCN)C(N)=O
B2: Compound 13, Ac-Val-Gln-Ile-aVal-Tyr-aLys-NH2 (peptide)
peptide: Ac-VQI[aVal]Y[N(NH2)Lys]-NH2
SMILES: CC[C@H](C)[C@H](NC(=O)[C@H](CCC(N)=O)NC(=O)[C@@H](NC(C)=O)C(C)C)C(=O)N(N)[C@H](C(=O)N[C@@H](Cc1ccc(O)cc1)C(=O)N(N)[C@@H](CCCCN)C(N)=O)C(C)C
B3: Compound 12, Ac-Val-Gln-aIle-Val-aTyr-Lys-NH2 (peptide)
peptide: Ac-VQ[aIle′]V[aTyr]K-NH2
SMILES: CC[C@H](C)[C@@H](C(=O)N[C@H](C(=O)N(N)[C@@H](Cc1ccc(O)cc1)C(=O)N[C@@H](CCCCN)C(N)=O)C(C)C)N(N)C(=O)[C@H](CCC(N)=O)NC(=O)[C@@H](NC(C)=O)C(C)C

Starred links: 1 amine or outer side, 2 acyl side, 3 side chain; linkers in the order of their positions; H or OH if unused. Non-standard residues stand in square brackets, D forms with d. Primed or numbered codes have the meaning given here. aTyr = Tyr with backbone N-amino (N-aminated amide nitrogen), NN([C@@H](Cc1ccc(O[*:3])cc1)C(=O)[*:2])[*:1]; aIle′ = Ile with backbone N-amino (N-aminated amide nitrogen), CC[C@H](C)[C@@H](C(=O)[*:2])N(N)[*:1]; aVal = Val with backbone N-amino (N-aminated amide nitrogen), CC(C)[C@@H](C(=O)[*:2])N(N)[*:1]; N(NH2)Lys = NCCCC[C@H](NN)C(=O)O

For this test, the target named is Human tauP301L (0N4R), recombinant, N-terminal His tag (UniProt P10636 2-758). Kind of test: capping of pre-formed Tau P301L fibers, inhibition of seeding in HEK293 tau-RD-YFP cells.
Sequence of Human tauP301L (0N4R), recombinant, N-terminal His tag (P10636 other isoform, or with tags, fused parts or gaps): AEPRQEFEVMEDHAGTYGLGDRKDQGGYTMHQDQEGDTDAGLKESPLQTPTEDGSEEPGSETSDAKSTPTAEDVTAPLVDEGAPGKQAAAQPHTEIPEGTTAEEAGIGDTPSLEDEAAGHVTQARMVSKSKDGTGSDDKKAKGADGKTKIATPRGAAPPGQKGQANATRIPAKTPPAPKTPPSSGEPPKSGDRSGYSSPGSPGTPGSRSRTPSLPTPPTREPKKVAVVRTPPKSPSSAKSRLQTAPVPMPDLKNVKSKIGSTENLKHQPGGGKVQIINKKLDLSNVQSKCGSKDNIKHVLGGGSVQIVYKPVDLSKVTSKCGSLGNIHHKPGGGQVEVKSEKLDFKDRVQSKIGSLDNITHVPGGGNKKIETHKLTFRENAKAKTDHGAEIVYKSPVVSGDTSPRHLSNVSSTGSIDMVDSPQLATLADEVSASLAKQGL
Broadly, the IC50 is the midpoint of a concentration-inhibition curve. For B1, the IC50 was above 20 µM.

Consider B2, for which the IC50 is 4.7 µM. The result for B3 reads 4.8 µM.
